Data set [1] deals with Anti-CRISPR protein AcrIIC2. The data set can be described thus: AUC.
In data set [2] the target is Neisseria meningitidis Cas9 (NmeCas9), full length (Neisseria meningitidis) (UniProt C9X1G5). Put plainly: SEC + other: quantitative SDS-PAGE against standards.
The target in the next data set is T1, NmeCas9 (Neisseria meningitidis, UniProt C9X1G5 1-1082).
T1 sequence: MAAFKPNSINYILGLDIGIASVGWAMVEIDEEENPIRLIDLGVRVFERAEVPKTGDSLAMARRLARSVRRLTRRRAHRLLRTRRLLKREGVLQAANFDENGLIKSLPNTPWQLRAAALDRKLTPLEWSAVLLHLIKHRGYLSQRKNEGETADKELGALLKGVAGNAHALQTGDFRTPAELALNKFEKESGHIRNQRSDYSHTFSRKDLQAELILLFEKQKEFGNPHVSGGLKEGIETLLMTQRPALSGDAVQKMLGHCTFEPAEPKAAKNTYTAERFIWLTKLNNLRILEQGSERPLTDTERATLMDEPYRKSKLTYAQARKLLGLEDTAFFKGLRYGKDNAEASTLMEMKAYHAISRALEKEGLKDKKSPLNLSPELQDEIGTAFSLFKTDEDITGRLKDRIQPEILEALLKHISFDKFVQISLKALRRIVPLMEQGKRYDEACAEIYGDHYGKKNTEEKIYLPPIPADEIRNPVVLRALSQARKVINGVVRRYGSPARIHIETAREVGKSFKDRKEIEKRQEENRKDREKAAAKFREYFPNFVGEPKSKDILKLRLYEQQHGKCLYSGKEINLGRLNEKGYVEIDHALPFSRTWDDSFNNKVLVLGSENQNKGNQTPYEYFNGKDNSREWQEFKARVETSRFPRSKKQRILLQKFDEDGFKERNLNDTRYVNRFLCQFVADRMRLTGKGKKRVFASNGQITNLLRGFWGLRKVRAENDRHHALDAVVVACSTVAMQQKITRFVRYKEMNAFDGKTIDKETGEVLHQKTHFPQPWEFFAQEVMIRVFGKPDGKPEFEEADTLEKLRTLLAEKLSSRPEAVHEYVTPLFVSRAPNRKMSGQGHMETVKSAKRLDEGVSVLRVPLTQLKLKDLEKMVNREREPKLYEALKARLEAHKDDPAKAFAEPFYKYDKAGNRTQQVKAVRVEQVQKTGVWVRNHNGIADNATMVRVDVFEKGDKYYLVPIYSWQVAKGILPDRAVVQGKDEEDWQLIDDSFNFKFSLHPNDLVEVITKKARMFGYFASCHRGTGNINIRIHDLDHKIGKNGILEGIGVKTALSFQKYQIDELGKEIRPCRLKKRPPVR
The data set can be described thus: DRaCALA.

For “Anti-CRISPR protein AcrIIC2 (natural protein)”, the stoichiometry N in data set [1] is 2.
On to “Anti-CRISPR protein AcrIIC3 (natural protein)”, for which, in data set [2], the stoichiometry N (AcrIIC3 per Cas9 (printed as 2:2)) is 1.

B1: NmeCas9 sgRNA, 94 nt (binding assay) (structured_RNA)
RNA: GGCUCCUCAGAUGUAGUAUUCAGAGUUGUAGCUCCCUUUCUGAAAAGAACCGUUGCUACAAUAAGGCCGUCUGAAAAGAUGUGCCGCAACGCUC
Consider B1, for which, in the data set with NmeCas9, the Kd was 1.66 nM.

(Values after PMC6750902.)
